Laboratory results reported in paper PMC4357396.

Molecular target: biotinylated HLA-A*0201-…
Test: SPR; BIAcore T100, CM5 chip; A2-EAA on the chip, MEL5 injected (ten serial dilutions, 45 uL/min); KDs by equilibrium analysis in triplicate at 5, 10, 15, 20, 25 and 30°C, nonlinear van't Hoff fit with T0 = 298 K; 10 mM HEPES pH 7.4, 150 mM NaCl, 3 mM EDTA, 0.005% P20; HLA-A*0201-… as negative control surface

- dH: -14 kcal/mol
Substance: MEL5 TCR
